Test results taken from paper PMC8166883 (2020).
Where a chain is given by its changes, count along the chain named.

B1: anti-hVEGF-A clone A033AM-19 (affinity-matured from A033) (antibody, V domains shown)
VH: EVELVQSGAEVKKPGSSVKVSCKASGGTFSDYSISWVRQAPGQGLEWMGGIIPIFGTPNYAQKFQGRVTITADESTSTAYMELSSLRSEDTAVYYCADGGAYCGGDCYSGYYYYGMDVWGQGTTVTVSS
VL: QSALTQPASVSGSPGQSITISCTGTSSDVGGYNLVSWYQQHPGKAPKLMIYQDNNKRPSGVSNRFSGSKSGNTASLTISGLQAEDEADYYCSYTNDSNSQVFGGGTKLTVL
B2: anti-hVEGF-A clone A033 (antibody, V domains shown)
VH: B1 VH with D31S, S33A
VL: B1 VL
B3: FLAG-tagged human vascular endothelial growth factor-A (FLAG-hVEGF-A) (ligand)
chain: APMAEGGGQNHHEVVKFMDVYQRSYCHPIETLVDIFQEYPDEIEYIFKPSCVPLMRCGGCCNDEGLECVPTEESNITMQIMRIKPHQGQHIGEMSFLQHNKCECRPKKDRARQENPCGPCSERRKHLFVQDPQTCKCSCKNTDSRCKARQLELNERTCRCDKPRR

Experiments:
Assay in all cases: SPR
[1] = biological target: B3
[2] = biological target: B015
[3] = biological target: B021

koff [1] [s⁻¹]	Kd [2] [nM]	koff [2] [s⁻¹]	Kd [3] [nM]	koff [3] [s⁻¹]	Binder
0.000411					B1
0.00405					B2
	0.0294	0.000549	0.903	0.000577	B3
